Five proteins from patent US20080293089 can be followed below.

B1: GST-Siah2 (protein)
chain: MSRPSSTGPSANKPCSKQPPPQPQHTPSPAAPPAAATISAAGPGSSAVPAAAAVISGPGGGGGAGPVSPQHHELTSLFECPVCFDYVLPPILQCQAGHLVCNQCRQKLSCCPTCRGALTPSIRNLAMEKVASAVLFPCKYATTGCSLTLHHTEKPEHEDICEYRPYSCPCPGASCKWQGSLEAVMSHLMHAHKSITTLQGEDIVFLATDINLPGAVDWVMMQSCFGHHFMLVLEKQEKYEGHQQFFAIVLLIGTRKQAENFAYRLELNGNRRRLTWEATPRSIHDGVAAAIMNSDCLVFDTAIAHLFADNGNLGINVTISTCCP
B2: GST-Nedd4 (protein)
chain: MATCAVEVFGLLEDEENSRIVRVRVIAGIGLAKKDILGASDPYVRVTLYDPMNGVLTSVQTKTIKKSLNPKWNEEILFRVHPQQHRLLFEVFDENRLTRDDFLGQVDVPLYPLPTENPRLERPYTFKDFVLHPRSHKSRVKGYLRLKMTYLPKTSGSEDDNAEQAEELEPGWVVLDQPDAACHLQQQQEPSPLPPGWEERQDILGRTYYVNHESRRTQWKRPTPQDNLTDAENGNIQLQAQRAFTTRRQISEETESVDNRESSENWEIIREDEATMYSNQAFPSPPPSSNLDVPTHLAEELNARLTIFGNSAVSQPASSSNHSSRRGSLQAYTFEEQPTLPVLLPTSSGLPPGWEEKQDERGRSYYVDHNSRTTTWTKPTVQATVETSQLTSSQSSAGPQSQASTSDSGQQVTQPSEIEQGFLPKGWEVRHAPNGRPFFIDHNTKTTTWEDPRLKIPAHLRGKTSLDTSNDLGPLPPGWEERTHTDGRIFYINHNIKRTQWEDPRLENVAITGPAVPYSRDYKRKYEFFRRKLKKQNDIPNKFEMKLRRATVLEDSYRRIMGVKRADFLKARLWIEFDGEKGLDYGGVAREWFFLISKEMFNPYYGLFEYSATDNYTLQINPNSGLCNEDHLSYFKFIGRVAGMAVYHGKLLDGFFIRPFYKMMLHKPITLHDMESVDSEYYNSLRWILENDPTELDLRFIIDEELFGQTHQHELKNGGSEIVVTNKNKKEYIYLVIQWRFVNRIQKQMAAFKEGFFELIPQDLIKIFDENELELLMCGLGDVDVNDWREHTKYKNGYSANHQVIQWFWKAVLMMDSEKRIRLLQFVTGTSRVPMNGFAELYGSNGPQSFTVEQWGTPEKLPRAHTCFNRLDLPPYESFEELWDKLQMAIENTQGFDGVD
B3: GST-Murf1 (protein)
chain: MDYKSSLIQDGNPMENLEKQLICPICLEMFTKPVVILPCQHNLCRKCANDIFQAANPYWTSRGSSVSMSGGRFRCPTCRHEVIMDRHGVYGLQRNLLVENIIDIYKQECSSRPLQKGSHPMCKEHEDEKINIYCLTCEVPTCSMCKVFGIHKACEVAPLQSVFQGQKTELNNCISMLVAGNDRVQTIITQLEDSRRVTKENSHQVKEELSQKFDTLYAILDEKKSELLQRITQEQEKKLSFIEALIQQYQEQLDKSTKLVETAIQSLDEPGGATFLLTAKQLIKSIVEASKGCQLGKTEQGFENMDFFTLDLEHIADALRAIDFGTDEEEEEFIEEEDQEEEESTEGKEEGHQ
B4: GST-E6AP (protein)
chain: MEKLHQCYWKSGEPQSDDIEASRMKRAAAKHLIERYYHQLTEGCGNEACTNEFCASCPTFLRMDNNAAAIKALELYKINAKLCDPHPSKKGASSAYLENSKGAPNNSCSEIKMNKKGARIDFKDVTYLTEEKVYEILELCREREDYSPLIRVIGRVFSSAEALVQSFRKVKQHTKEELKSLQAKDEDKDEDEKEKAACSAAAMEEDSEASSSRIGDSSQGDNNLQKLGPDDVSVDIDAIRRVYTRLLSNEKIETAFLNALVYLSPNVECDLTYHNVYSRDPNYLNLFIIVMENRNLHSPEYLEMALPLFCKAMSKLPLAAQGKLIRLWSKYNADQIRRMMETFQQLITYKVISNEFNSRNLVNDDDAIVAASKCLKMVYYANVVGGEVDTNHNEEDDEEPIPESSELTLQELLGEERRNKKGPRVDPLETELGVKTLDCRKPLIPFEEFINEPLNEVLEMDKDYTFFKVETENKFSFMTCPFILNAVTKNLGLYYDNRIRMYSERRITVLYSLVQGQQLNPYLRLKVRRDHIIDDALVRLEMIAMENPADLKKQLYVEFEGEQGVDEGGVSKEFFQLVVEEIFNPDIGMFTYDESTKLFWFNPSSFETEGQFTLIGIVLGLAIYNNCILDVHFPMVVYRKLMGKKGTFRDLGDSHPVLYQSLKDLLEYEGNVEDDMMITFQISQTDLFGNPMMYDLKENGDKIPITNENRKEFVNLYSDYILNKSVEKQFKAFRRGFHMVTNESPLKYLFRPEEIELLICGSRNLDFQALEETTEYDGGYTRDSVLIREFWEIVHSFTDEQKRLFLQFTTGTDRAPVGGLGKLKMIIAKNGPDTERLPTSHTCFNVLLLPEYSSKEKLKERLLKAITYAKGFGML
B5: His-CHIP (protein)
chain: MKGKEEKEGGARLGAGGGSPEKSPSAQELKEQGNRLFVGRKYPEAAACYGRAITRNPLVAVYYTNRALCYLKMQQHEQALADCRRALELDGQSVKAHFFLGQCQLEMESYDEAIANLQRAYSLAKEQRLNFGDDIPSALRIAKKKRWNSIEERRIHQESELHSYLSRLIAAERERELEECQRNHEGDEDDSHVRAQQACIEAKHDKYMADMDELFSQVDEKRKKRDIPDYLCGKISFELMREPCITPSGITYDRKDIEEHLQRVGHFDPVTRSPLTQEQLIPNLAMKEVIDAFISENGWVEDY

This series has as its target T1, S5a (substrate in the E3 ligase selectivity example), P55036.
T1 chain: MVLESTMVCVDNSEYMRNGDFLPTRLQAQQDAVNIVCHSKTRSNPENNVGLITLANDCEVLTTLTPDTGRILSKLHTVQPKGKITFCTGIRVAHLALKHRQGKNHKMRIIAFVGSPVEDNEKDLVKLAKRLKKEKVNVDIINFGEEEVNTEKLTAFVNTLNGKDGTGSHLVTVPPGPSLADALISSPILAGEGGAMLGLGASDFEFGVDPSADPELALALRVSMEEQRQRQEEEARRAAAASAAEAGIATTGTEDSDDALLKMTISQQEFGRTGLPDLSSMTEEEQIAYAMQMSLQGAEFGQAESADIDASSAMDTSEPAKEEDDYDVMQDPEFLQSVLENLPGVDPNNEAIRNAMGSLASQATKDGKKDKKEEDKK
As for B1, the “Ubiquitinated S5a?” value was “Yes (low)”.
Take B2: the “Ubiquitinated S5a?” value is given as “Yes”.
The same measure for B3: “Yes”; for B4: “Yes”.
The same measure for B5: “Yes”.
